Test results: patent publication US20130101549A1 (Biogen, published 2013)

Legend:
human HVEM-Ig [1] = target: T1, human HVEM-Ig (human, UniProt Q92956 39-202); assay: ELISA on coated HVEM-Ig
T1 construct: Expressed and purified in house; also called HVEM-Fc; Herpes virus entry mediator-Ig
T1 sequence (looked up): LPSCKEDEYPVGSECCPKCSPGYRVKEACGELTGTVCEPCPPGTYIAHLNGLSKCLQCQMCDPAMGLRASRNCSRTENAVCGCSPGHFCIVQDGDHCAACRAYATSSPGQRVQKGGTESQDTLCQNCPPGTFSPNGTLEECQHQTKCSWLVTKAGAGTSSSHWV
Protocol: (§1) Human and murine ErbB2-Fc were obtained from R&D Systems. Wells of 96-well plates were coated with 2 ug/ml or 0.2 ug/ml of human or murine HER2-Fc by incubation overnight at 4-8° C. with either of these six proteins (80 ul/well of a 0.2 or 2 ug/ml solution in PBS). Wells were emptied, filled completely with a solution of PBS with 1% BSA (blocking buffer) and incubated at room temperature for 1 hour. Wells were emptied, washed twice PBS containing 0.05% Tween 20 (PBST) and filled with the samples (80 ul/well of 3× dilution series of the standard and supernatants in blocking buffer) prepared in another 96-well plate. After a 2-hour incubation at room temperature, the wells were emptied, washed three times with PBST and filled with a solution of HRP-conjugated goat pAbs anti-human kappa chain (80 ul/well of a 2000-fold dilution in blocking buffer). After 1-hour incubation, the wells were emptied and filled with a solution of HRP substrate prepared freshly. The color was left to develop for 3 minutes and was stopped by addition of an equal volume of 1N H₂SO₄. Absorbance was measured at 450 nm using a Plate Reader (SpectraMax, Molecular Devices). The data was processed and graphs were created using SoftMax Pro software.
(§2) Human and murine HVEM-Ig were expressed and purified in house.

human LTβR-Ig [2] = target: T2, human LTβR-Ig (human, UniProt P36941 31-227); assay: ELISA on coated LTbR-Ig
T2 construct: Expressed and purified in house; also called hLTbR-Ig; human LTBR-Ig
Protocol: as §1
(§3) Human and murine LTBR-Ig were expressed and purified in house.

human LTβR-Ig [3] = target: T2, human LTβR-Ig; assay: FACS (LTbR column of Table 2; format not told there)
human HER2-Fc [4] = target: T3, human HER2-Fc (human, UniProt P04626 23-652); assay: Octet biolayer interferometry, receptor-Fc on anti-human Fc biosensor, culture supernatant
T3 construct: Bought from R&D Systems: homodimeric fusion of the HER2 extracellular domain and human IgG1 Fc; also called human ErbB2-Fc; rhErbB2-Fc; not shown: Fc fragment of human IgG1
Protocol: (§4) Anti-human Fc-specific biosensors (Fortebio SKU 18-0001) were hydrated in OB (1×PBS supplemented with 1 mg/ml BSA, 0.05% NaN₃, and 0.02% TWEEN 20) for at least five minutes prior to assays. For each assay, the respective receptor—Fc fusion was diluted to 10 μg/ml in OB and allowed to bind to the biosensors for five minutes. The sensors were then incubated in the indicated culture supernatant for an additional five minutes, and subsequently transferred to fresh wells […].

human LTβR-Ig [5] = target: T2, human LTβR-Ig; assay: as above
Protocol: as §4

human HVEM-Ig [6] = target: T1, human HVEM-Ig; assay: as above
Protocol: as §4

human HER2-Fc [7] = target: T3, human HER2-Fc; assay: ELISA on coated huHER2-Fc, HRP anti-human kappa; the number is C of the printed 4-P fit (A -0.074, B 0.86, D 1.013, R^2 0.999); x axis: Fab equivalent concentration
Protocol: as §1, with “Wells” for “Human and murine ErbB2-Fc were obtained from R&D Systems. Wells”, “coated” for “coated with 2 ug/ml or 0.2 ug/ml of human or murine HER2-Fc”, “goat antibodies against human kappa chain” for “either of these six proteins”, “5” for “0.2 or 2”
Human and murine HER2-Fc (homodimeric fusion proteins consisting of the extracellular domain of HER2 and the Fc fragment of human IgG1) were obtained from R&D Systems. […]

human LTβR-Ig [8] = target: T2, human LTβR-Ig; assay: ELISA, huLTBR-Ig coated at 0.2 ug/ml, HRP goat anti-human kappa; the number is C of the printed 4-P fit (A 0.057, B 0.9, D 1.548, R^2 0.998); Fab-Light is BIIB71F10-132 by paragraph 502
Protocol: as §1, §3

human HVEM-Ig [9] = target: T1, human HVEM-Ig; assay: ELISA, huHVEM-Ig coated at 2 ug/ml, HRP goat anti-human kappa; the number is C of the printed 4-P fit (A 0.064, B 0.959, D 1.517, R^2 0.999); Fab-Light is BIIB71F10-132 by paragraph 503
Protocol: as §1, §2

human HVEM-Ig [10] = target: T1, human HVEM-Ig; assay: ELISA, huHVEM-Ig coated at 0.2 ug/ml, HRP goat anti-human kappa; the number is C of the printed 4-P fit (A 0.08, B 1.089, D 1.303, R^2 0.999); Fab-Light is BIIB71F10-132 by paragraph 503
Protocol: as §1, §2

T2 sequence (P36941 31-227): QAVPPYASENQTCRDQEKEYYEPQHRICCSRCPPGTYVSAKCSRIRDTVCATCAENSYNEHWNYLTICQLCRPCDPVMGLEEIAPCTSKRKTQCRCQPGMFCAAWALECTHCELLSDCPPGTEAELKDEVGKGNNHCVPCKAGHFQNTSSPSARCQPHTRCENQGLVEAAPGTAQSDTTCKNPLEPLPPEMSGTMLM

B1: 71F10 Fab-hLIGHT fusion with the (G4S)4 linker (BIIB71F10-132) (other)
heavy: EVQLLESGGGLVQPGGSLRLSCAASGFTFSSYGMVWVRQAPGKGLEWVSSISSSGGLTWYADSVKGRFTISRDNSKNTLYLQMNSLRAEDTAVYYCASPPGIAVARDYWGQGTLVTVSSASTKGPSVFPLAPSSKSTSGGTAALGCLVKDYFPEPVTVSWNSGALTSGVHTFPAVLQSSGLYSLSSVVTVPSSSLGTQTYICNVNHKPSNTKVDKKVEPKSCDKGGGGSGGGGSGGGGSGGGGSNPAAHLTGANSSLTGSGGPLLWETQLGLAFLRGLSYHDGALVVTKAGYYYIYSKVQLGGVGCPLGLASTITHGLYKRTPRYPEELELLVSQQSPCGRATSSSRVWWDSSFLGGVVHLEAGEEVVVRVLDERLVRLRDGTRSYFGAFMV
light: DIQMTQSPSSLSASVGDRVTITCRASQGISNYLAWYQQKPGKVPKLLIYAASTLQSGVPSRFSGSGSGTDFTLTISSLQPEDVATYYCQKYNSALLTFGGGTKVEIKRTVAAPSVFIFPPSDEQLKSGTASVVCLLNNFYPREAKVQWKVDNALQSGNSQESVTEQDSKDSTYSLSSTLTLSKADYEKHKVYACEVTHQGLSSPVTKSFNRGEC
notes: Trimer of Fab-LIGHT units; also called 71F10 Fab-(G4S)4-LIGHT
In the case of B1, the EC50 (human HVEM-Ig [1]) is reported as 10 pM, the EC50 (human LTβR-Ig [2]) is reported as 10 pM and the EC50 (human LTβR-Ig [3]) is reported as 200 pM. The koff (human HER2-Fc [4]) was 0.000117 s⁻¹, the koff (human LTβR-Ig [5]) was 0.000197 s⁻¹ and the koff (human HVEM-Ig [6]) was 0.00016 s⁻¹. It also gave an EC50 (human HER2-Fc [7]) of 7 ng/mL, an EC50 (human LTβR-Ig [8]) of 1.91 ng/mL and an EC50 (human HVEM-Ig [9]) of 2.45 ng/mL. For the same binder, the EC50 (human HVEM-Ig [10]) was 3.98 ng/mL.
